Among the data in a protein production outcome set (Wang et al. 2014) are protein production values, retold here.
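Further: failed if final PepcDB status was selected cloned or expressed and not failed if soluble or beyond.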

This data set can be described thus: label from the status in PepcDB records.
For “MAPTLAGPNVAGDCFPGASGCIVLPMSGSLSLHIAAFLALLPAAFTPLRQTPGRDGLFWGTLGVAIIGALVVSIVPSLRQGMWSTSFSSALWVSIAATLLLFSELCFRHQAAWRLTPVLMPYLIALGAMATIWEGAEGAPLADHAPAFWTVLHIVIAVLTYGMLTLGAVAALAGFLQERALKARRPTSLTRRLPAAAEADRLSWILLYTSEWVLGAGLLTGMAVEYLETGAILQPDHKSMLSSLAFLVIGGLILARSRWGVRGRVGARVVLLAYLLLTLAFPGVKFVSDVLL”, the protein production entry is “failed”.

“MAPTLQGQWIKVGQKGGTGPGPRSSHGIAAVGDKLYSFGGELTPNKHIDKDLYVFDFNTQTWSIAQPKGDAPTVSCLGVRMVAVGTKIYIFGGRDENRNFENFRSYDTVTSEWTFLTKLDEVGGPEARTFHSMASDENHVYVFGGVSKGGTMNTPTRFRTIEAYNIADGKWAQLPDPGDNFEKRGGAGFAVVQGKIWVVYGFATSIVPGGKDDYESNAVQFYDPASKKWTEVETTGAKPSARSVFAHAVVGKYIIIFAGEVWPDLNGHYGPGTLSNEGYALDTETLVWEKLGEEGAPAIPRGWTAYTAATVDGKNGLLMHGGKLPTNERTDDLYFYAVNSA”: the protein production result is on record as “failed”.

Take “MAQATSPIELALTTGRGHQAEVRLAKPDGSYLPVIASCNPLNRSDGGIVLTLNDISELRSAERAVSDRAEELATLNRELKETSQATTRLVKLGELLQACVTFHEAFSVVGSAMPDFFGGLSGTVHLTSASRNLVEEMAHWGAVRSSVGQFAPEDCWALRRGQEHVAGPGMLTPRCNHITENGGRGYVCMPLAAQGETLGIVHLCEPDAADRPDWLTERQQILRGVVDTLALALANLRLRETLRQQSIRDPNTGLYNRRYLEETSSRELRRMERSGQPLAMIMLDVDHFKQFNDTFGHEAGDLVLKQVAATLLDHARESDVVSRYGGEEFALMMPGTSLADAAERAEALRKAIKQLHLTHRGRTLGTITASFGVSAFPELGASWVEIVNAADRSLYQAKADGRDRVVAGLGRADPQWDLSTASQSVA”: the protein production result is “failed”.

With “MAQEEAGRLPQVLARVGTSHGITDLACKLRFYDDWAPEYDQDVAALKYRAPRLAVDCLSQALQGPPHDALILDVACGTGLVAVELQARGFLQVQGVDGSPEMLKQARARGLYHHLSLCTLGQEPLPYPKGTFDAVIIVGALSEGQVPCSAIPELLRVTKPGGLVCLTTRTNPSNLPYKEALEAALDSLEQAGAWERLVTQPVDHWELATSEQESGLATCANDGFISGVIYLYRKQETAQGERGRLSIQPLIDH”, the protein production entry is “failed”.

Turning to “MAQFPTPFGGSLDIWAITVEERAKHDQQFHSLKPISGFITGDQARNFFFQSGLPQPVLAQIWALADMNNDGRMDQVEFSIAMKLIKLKLQGYQLPSALPPVMKQQPVAISSAPPFGMGGIASMPPLTAVAPVPMGSIPVVGMSPTLVSSVPTAAVPPLANGAPPVIQPLPAFAHPAATLPK”, the protein production result was “failed”.

Take “MAQGNPLTPEEIELLHAGDEENDNTDTLMVIRVPNDGSSATAISIPRDTYVHDENVGNLKINGVYRAYKNRKASELVNSGESDQKHIDELSKEAGRKALISSISDLTGVTVDHYAEVGLLGFVLLTNAVGGVDVCLNNDVYDEFSGADFKAGQQTLRDGQALAFVRQRHGLPRGDLDRIVRQQAFMASLVAKVLSSGTLTNPSKLSDLGEAVSRSVVIDKNWDVMSFANQLQNLAGGNVKFNTIPVTSIDGVGDYGESVVTVDKNQVHQFFDRLLNGNNGEETPTSDSEAPAENPHTSTTIDVLNATSTTGLASQVAGHLSAKHYTIGNIGNALEGMYHESQIVAADPNNEAVKAIAAELGGLPITQRNDLEHHHHHH”: the protein production entry is recorded as “failed”.

Regarding “MAQKMTGALVFDERTDRYDIRFDLNSYYGGLHCGECFDVFVRGKWKPTRIEYGDNWYLVGIRAEDLNGLRVRI”, the protein production entry is “failed”.

Take “MAQPKFVVAEIVEMEDHPDSDHLHICKVNVGFADPVQIVCGAPNAALGLKTVAALPGAMMPNGSLIFPGALRGVQSYGMLCSALEHHHHHH”: the protein production entry was “failed”.

With “MAQPSTTYKFELNLTDLDRNVYESVKQTIARHPSETEERMAVRLLAYALWYNENLSFGRGLSDVDEPALWEKSLDDRVLHWIEVGQPDADRLTWCSRRTERTSLLAYGSLRVWEGKVVSAVKNLKNLSIAAVPQEVLETLATDMPRSIKWDVMISEGTVFVTDDRGQHEVQLQWLLGERG”, the protein production entry was “not failed”.

With “MAQQFIDIGANLTDDNYFGNYHGKHYHEEDIDVVLQRAERNGLSHIIITSGCLNDFKKAIEIINKYQNLTNIKLVTTIGVHPTRTNELKQEGYLDELLLLCEKNIDKVVAIGEIGLDYERLQFSDKETQLSGYRTLSILHQKYPYLPFFFHCRKSWSDLCQLNKELGYNGCKGVVHCFDGTEEEMNQILNEGWDIGVTGNSLQSIELLNVMKQIPIERLHIETDCPYCGIKKTSAGFKYLKEKDFGVKVEKYQRNKYVQRRNEPSNIIDIAIIMSSIKHISLFEFVNKVYSNSMNMYFPTMN”, the protein production result is given as “not failed”.

In the case of “MAQQWSLQRLAGRHPQDSYEDSTQSSIFTYTNSNSTRGPFEGPNYHIAPRWVYHLTSVWMIFVVIASVFTNGLVLAATMKFKKLRHPLNWILVNLAVADLAETVIASTISVVNQVYGYFVLGHPMCVLEGYTVSLCGITGLWSLAIISWERWMVVCKPFGNVRFDAKLAIVGIAFSWIWAAVWTAPPIFGWSRYWPHGLKTSCGPDVFSGSSYPGVQSYMIVLMVTCCITPLSIIVLCYLQVWLAIRAVAKQQKESESTQKAEKEVTRMVVVMVLAFCFCWGPYAFFACFAAANPGYPFHPLMAALPAFFAKSATIYNPVIYVFMNRQFRNCILQLFGKKVDDGSELSSASKTEVSSVSSVSPA”, the protein production entry is given as “failed”.

Take “MAQRVANIMKPFATGLVVGKFAPLHCGHEKLINTALAQCEELFIISYSVPEMPDCEPEKRLTWLQVRFPQATILVLTPELVARYNLPAIPHNDADADIHRHYVATLCLQILRCRPHAVFTAEDYGDGFANVLARRFAQPVEHVRMARPVGDEAPSGTLIRSDVHRYRYMLANDVYYSFVRRICLLGGESTGKSTLSKALADGLDTVYVAEFGRDYWEEKNGILTADDLLHIACEQVRREQQAEANHYLICDTSPLTTLFYALDQYGHAPQELHQLAEREYSLVVLCGAEFPFVQDGTRQGEVFRARQQVWYEQELSRRNIPYLSVSGPLQERVEQILRQLPD”: the protein production result is reported as “failed”.

With “MAQSETVERILDAAEQLFAEKGFAETSLRLITSKAGVNLAAVNYHFGSKKALIQAVFSRFLGPFCASLEKELDRRQAKPEAQHATLEDLLHLLVSQAMAVKPRSGNDLSIFMRLLGLAFSQSQGHLRKYLEEVYGKVFRRYMLLVNEAAPKLPPIELFWRVHFMLGAAAFSMSGIKALRAMAETDFGVNTSTEQVMHLMVPFFAAGMRAESGIDDPLLAGAQLRPRNKTPAKA”, the protein production result is on record as “not failed”.

For “MAQSINITELNLPQLEMLKNQLDQEVEFLSTSIAQLKVVQTKYVEAKDCLNVLNKSNEGKELLVPLTSSMYVPGKLHDVEHVLIDVGTGYYVEKTAEDAKDFFKRKIDFLTKQMEKIQPALQEKHAMKQAVMEMMSQKIQQLTALGAAQATVKA”, the protein production result is “failed”.

Turning to “MAQTKRFVIAGGGRVGKQTAENLVDQGHDVLLIESDEERVEALSDAYIGPVIHGDATRPSILQQADLAEADAIAALTDEPGTNLAICMEAQQYAPSIRTIARAETEADHEYDEVVDATLLPEYLGGDHAADILTGEDIRTLVYPTADLDIIKVTVAPSAPVAGRRLDEIALPSGSLLISTADRTELAGADTVLKAEEQYILAVETDVVDEVLKLMRG”, the protein production result was “failed”.

With “MARAPARARGSRGLNCLAGSQQTRIPAQETDDLFTTCQFGETEEDTAVEEAETIDCLSIPKQKLAQSQKKINQFINEKMSTKANKELIRCFILSQIVFGKEHWKCAQALANLAYGYLTLRGLPAQAKKHAESARNTLLTWKRNTTSDKEKKEILETLVILYYTLGIAWLLQNHGKQAYIHLQKAQRNMKELKELNNGSIYEIQVSDKDLTIALGRASLAMHRMHLALAYFEKAICGVILAKGHDTSDLISLYEEIAQIEQLRKNHEQAIQYLQQAYSISVSSFTEVSPQTAEASALLAKAYAMSGESQHRDAVEIYFIRSISTYQTLGSEDYETLTTIEDFCTWLIQNGEKQEAYRLLKSTLNSCTFGDCGKKVAETFYNMGSICFAKGELREAIALLRKCLMIQSLIYGSEHTKSIETKSLLSLLQRPISRFPRTAEQSHGVVARAQMSKISAGMALSASASHWNNQSQMSWDSACIPMGASVLYDTSFRNAVKYSLDCHGQQPEFLSCGGSAS”, the protein production entry is reported as “failed”.
